Patent US20240100162A1 (Amgen, published 2024)

B1: TCR1 (TCR, V domains shown)
V domain 1: KQEVTQIPAALSVPEGENLVLNCSFTDSAIYNLQWFRQDPGKGLTSLLLIQSSQREQTSGRLNASLDKSSGRSTLYIAASQPGDSATYLCAAMKTSYDKVIFGPGTSLSVIP
V domain 2: GEEVAQTPKHLVRGEGQKAKLYCAPIKGHSYVFWYQQVLKNEFKFLISFQNENVFDETGMPKERFSAKCLPNSPCSLEIQATKLEDSAVYFCASSQGQGGYGYTFGSGTRLTVVE
B2: TCR3 (TCR, V domains shown)
V domain 1: AQKVTQAQTEISVVEKEDVTLDCVYETRDTTYYLFWYKQPPSGELVFLIRRNSFDEQNEISGRYSWNFQKSTSSFNFTITASQVVDSAVYFCALSVLRMDSSYKLIFGSGTRLLVRP
V domain 2: NAGVTQTPKFRVLKTGQSMTLLCAQDMNHEYMYWYRQDPGMGLRLIHYSVGEGTTAKGEVPDGYNVSRLKKQNFLLGLESAAPSQTSVYFCASSLQGAGQPQHFGDGTRLSILE
B3: TCR2 (TCR, V domains shown)
V domain 1: QKEVEQNSGPLSVPEGAIASLNCTYSDRGSQSFFWYRQYSGKSPELIMSIYSNGDKEDGRFTAQLNKASQYVSLLIRDSQPSDSATYLCAVNIPFSNSGGYQKVTFGTGTKLQVIP
V domain 2: NAGVTQTPKFRVLKTGQSMTLLCAQDMNHEYMYWYRQDPGMGLRLIHYSVGEGTTAKGEVPDGYNVSRLKKQNFLLGLESAAPSQTSVYFCASRHPGQYNQPQHFGDGTRLSILE

Molecular target: MAGE-B2 peptide-MHC (…/HLA-A*02:01) on cells (human)
Assay: cell-based or functional assay

Binder | EC90 (peptide concentration), T2/peptide cytotoxicity assay [nM] | E:T EC50, cytotoxicity against MAGE-B2+ MAGE-A4+ cancer cell lines | E:T EC50, cytotoxicity against MAGE-B2+ MAGE-A4- cancer cell lines
B1 | ≤ 10 |  | 
B2 | ≤ 10 |  | 
B3 | ≤ 10 | 0.01 E:T ratio | ~0.07 E:T ratio
